Laboratory results from the supplement of paper PMC10724198.
± gives the standard deviation of the averaged measurements.

Tested on: Saccharomyces cerevisiae
Assay: protein stability index of tFT-peptide fusion (C-terminal peptide) (PSI (0-1 scale)); higher = more stable (slower turnover)
Conditions: temperature: 30 C
Method: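 MPS profiling in S. cerevisiae of the yeast C-terminome library: the last 12 aa of each annotated ORF are fused to the C-terminus of a sfGFP-mCherry timer, after a GGGS linker. Cells are FACS-sorted into 8 mCherry/sfGFP bins and deep-sequenced. PSI runs from 0 (unstable) to 1 (stable); wild type and das1Δ backgrounds, two technical replicates each.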

[1] = genetic background: das1 deletion

Sequence	protein stability index [1]	protein stability index (genetic background: wild type)
IYHKDGNKVLKE [YDR391C C-terminal 12 aa]	0.706 ± 0.053	0.6606 ± 0.0043
IYKLEYYLLTMQ [YOR199W C-terminal 12 aa]	0.574 ± 0.011	0.526 ± 0.034
IYRRRKNKIFFW [RCK1 C-terminal 12 aa]	0.705 ± 0.012	0.692 ± 0.045
KAAINQQSTPLN [RPH1 C-terminal 12 aa]	0.676 ± 0.016	0.728 ± 0.053
KAKFEGKKIKFD [BUD22 C-terminal 12 aa]	0.678 ± 0.011	0.7092 ± 0.0046
KALIQRKGGKLE [RPL26A C-terminal 12 aa]	0.6757 ± 0.0023	0.688 ± 0.037
KDEDEEADEDMK [PRE9 C-terminal 12 aa]	0.711 ± 0.033	0.694 ± 0.014
KDRCGNVPHQSR [MRN1 C-terminal 12 aa]	0.706 ± 0.0088	0.716 ± 0.08
KEASRRFDAGKI [SOD2 C-terminal 12 aa]	0.6778 ± 0.0059	0.6795 ± 0.0053
KEKKDKKKKSKD [NOP56 C-terminal 12 aa]	0.686 ± 0.025	0.661 ± 0.022
KELEFGLDRKYF [SLT2 C-terminal 12 aa]	0.6989 ± 0.0057	0.68 ± 0.04
KELVKRRIVGEV [AEP3 C-terminal 12 aa]	0.6815 ± 0.0042	0.72 ± 0.064
KGARSRFQKSYR [RPS16A C-terminal 12 aa]	0.707 ± 0.011	0.7188 ± 0.0055
KGTFLANLTDLI [SWF1 C-terminal 12 aa]	0.7347 ± 0.0012	0.665 ± 0.014
KHGTMQFYWRKT [YOR225W C-terminal 12 aa]	0.692 ± 0.0073	0.386 ± 0.003
KHGVSAVKRYLR [CBP1 C-terminal 12 aa]	0.6765 ± 0.0054	0.68 ± 0.0089
KKDKPEGWDRLP [KTR6 C-terminal 12 aa]	0.728 ± 0.046	0.711 ± 0.0073
KKHSMKSRFKPY [YNL035C C-terminal 12 aa]	0.696 ± 0.029	0.712 ± 0.0099
KKKEDKGGLQRS [VHS3 C-terminal 12 aa]	0.6842 ± 0.0022	0.697 ± 0.061
KKKNRSKIKFNY [PTH4 C-terminal 12 aa]	0.724 ± 0.021	0.589 ± 0.011
KKSPGGPRQRIK [MAP1 C-terminal 12 aa]	0.694 ± 0.033	0.692 ± 0.046

Sequence	protein stability index [1]	protein stability index (genetic background: wild type)
KLEKLKAEKTRR [YDL085C-A C-terminal 12 aa]	0.669 ± 0.01	0.673 ± 0.031
KLMEAIFRIRTI [YKL106C-A C-terminal 12 aa]	0.7668 ± 0.0015	0.152 ± 0.0039
KLSNWLFGWNDL [ASM4 C-terminal 12 aa]	0.753 ± 0.019	0.746 ± 0.052
KLVDVRKVYYSS [MRPS5 C-terminal 12 aa]	0.7071 ± 0.0029	0.6234 ± 0.0043
KLYKNSDFNSEK [RRG7 C-terminal 12 aa]	0.7 ± 0.0014	0.694 ± 0.017
KMDKRAKTSDSA [RPL8B C-terminal 12 aa]	0.698 ± 0.0049	0.6802 ± 0.0027
KNLADIHKIMGF [MSW1 C-terminal 12 aa]	0.6849 ± 0.00012	0.709 ± 0.052
KNVTINTRETPL [DAL81 C-terminal 12 aa]	0.694 ± 0.018	0.6712 ± 0.0061
KPDSTAVRNEDE [YNR065C C-terminal 12 aa]	0.7 ± 0.012	0.66 ± 0.072
KQAIYTRAAASE [RPS25B C-terminal 12 aa]	0.682 ± 0.054	0.69 ± 0.0061
KQGKKKKDCVIM [SKT5 C-terminal 12 aa]	0.7193 ± 0.0022	0.696 ± 0.047
KQKEAWYSFLFK [SCO1 C-terminal 12 aa]	0.7138 ± 0.0035	0.68151 ± 0.00058
KQLGSSHNYTVN [SKG6 C-terminal 12 aa]	0.695 ± 0.019	0.696 ± 0.0079
KQPRFQLLFEFS [TTI2 C-terminal 12 aa]	0.687 ± 0.011	0.6511 ± 0.0017
KQYIEPESVKPN [ABD1 C-terminal 12 aa]	0.6996 ± 0.0034	0.722 ± 0.051
KRIDSYIDEMTT [MCO14 C-terminal 12 aa]	0.723 ± 0.011	0.664 ± 0.054
KRLHQLDGIPHA [MEO1 C-terminal 12 aa]	0.703 ± 0.0079	0.6852 ± 0.0018
KRRIEEIQMLFE [RAD5 C-terminal 12 aa]	0.7081 ± 0.0032	0.683 ± 0.036
KRSLRRNARKGL [ESC8 C-terminal 12 aa]	0.721 ± 0.0077	0.687 ± 0.026
KSALSKTLGLNK [NHA1 C-terminal 12 aa]	0.699 ± 0.014	0.7038 ± 0.0048
KSCGNNAGARIC [HO C-terminal 12 aa]	0.7093 ± 0.00098	0.452 ± 0.022

Sequence	protein stability index [1]	protein stability index (genetic background: wild type)
KSLETFRTTNTL [FBA1 C-terminal 12 aa]	0.69 ± 0.011	0.7271 ± 0.0061
KSPSITVNEFFH [RCN2 C-terminal 12 aa]	0.698 ± 0.01	0.734 ± 0.021
KSVPILLPQVCM [YIL059C C-terminal 12 aa]	0.5945 ± 0.0057	0.578 ± 0.0092
KTDKVLYKRNGY [HPA3 C-terminal 12 aa]	0.687 ± 0.02	0.675 ± 0.065
KTFKLLTNKWIH [YAR009C C-terminal 12 aa]	0.704 ± 0.018	0.587 ± 0.014
KVFDRSGIVLEK [QRI1 C-terminal 12 aa]	0.71 ± 0.013	0.701 ± 0.016
KVKCALERKPYL [ZAP1 C-terminal 12 aa]	0.706 ± 0.05	0.6754 ± 0.00096
KVVTRSIVLWGV [YGL235W C-terminal 12 aa]	0.632 ± 0.02	0.615 ± 0.016
KYFLRMVYPMKV [ESBP6 C-terminal 12 aa]	0.4888 ± 0.0038	0.404 ± 0.031
LADHLMEKYLSI [TFC4 C-terminal 12 aa]	0.701 ± 0.025	0.658 ± 0.01
LALNRDDPPDML [PEA2 C-terminal 12 aa]	0.6989 ± 0.0011	0.755 ± 0.13
LAQQLQQDSEAS [SWC5 C-terminal 12 aa]	0.699 ± 0.039	0.701 ± 0.0092
LASDFIGRGYDD [WTM2 C-terminal 12 aa]	0.6962 ± 0.0068	0.678 ± 0.011
LATMILARMSCS [IRA1 C-terminal 12 aa]	0.682 ± 0.023	0.657 ± 0.035
LAYPACLACQAS [VPS69 C-terminal 12 aa]	0.6 ± 0.02	0.59 ± 0.011
LCHYLTPYMIIY [YOL106W C-terminal 12 aa]	0.456 ± 0.016	0.45 ± 0.011
LCILRIVGVANF [YER039C-A C-terminal 12 aa]	0.426 ± 0.0017	0.4474 ± 0.0034
LCSIYKALLLGP [ATF1 C-terminal 12 aa]	0.6813 ± 0.0019	0.67 ± 0.0087
LDAENNNKCSIM [RHB1 C-terminal 12 aa]	0.7192 ± 0.003	0.758 ± 0.027
LDAEYYIKFASK [ERD1 C-terminal 12 aa]	0.6942 ± 0.0061	0.69 ± 0.024
LDFAKRKLKKKQ [TFB2 C-terminal 12 aa]	0.714 ± 0.015	0.622 ± 0.034

Sequence	protein stability index [1]	protein stability index (genetic background: wild type)
LDMAVIDNTTHN [SDO1 C-terminal 12 aa]	0.712 ± 0.026	0.682 ± 0.016
LDNIERDANDLS [LAM4 C-terminal 12 aa]	0.695 ± 0.0073	0.678 ± 0.008
LDTLQTASQYLP [VID22 C-terminal 12 aa]	0.7056 ± 0.0017	0.749 ± 0.079
LDYALVEMDKLF [UTP13 C-terminal 12 aa]	0.708 ± 0.033	0.708 ± 0.039
LEELDIEEEYSD [ACL4 C-terminal 12 aa]	0.687 ± 0.059	0.673 ± 0.0086
LEHGLKVRMDEE [HIS7 C-terminal 12 aa]	0.7083 ± 0.0038	0.72 ± 0.06
LELLLAADYLSI [ELC1 C-terminal 12 aa]	0.698 ± 0.034	0.682 ± 0.049
LELVLKNKEMEN [RSA3 C-terminal 12 aa]	0.684 ± 0.016	0.706 ± 0.092
LEQGFKVVSAKE [YCS4 C-terminal 12 aa]	0.697 ± 0.057	0.6812 ± 0.0067
LEQYEKTLVHDD [GCV3 C-terminal 12 aa]	0.6942 ± 0.00074	0.678 ± 0.05
LERILHEMHPPA [EOS1 C-terminal 12 aa]	0.714 ± 0.012	0.726 ± 0.025
LETLKKKKKRNN [MAK5 C-terminal 12 aa]	0.711 ± 0.014	0.66348 ± 0.00034
LFFLVGLQLAIP [YGR022C C-terminal 12 aa]	0.324 ± 0.002	0.327 ± 0.0074
LFQPIIVKPLRS [YHR007C-A C-terminal 12 aa]	0.599 ± 0.016	0.625 ± 0.023
LFTAMRTVLFGK [CBP6 C-terminal 12 aa]	0.704 ± 0.0044	0.72 ± 0.14
LGYTDDEIYNRQ [SER2 C-terminal 12 aa]	0.706 ± 0.026	0.681 ± 0.036
LILHFVCLHFIN [OST2 C-terminal 12 aa]	0.544 ± 0.017	0.184 ± 0.027
LIRKMYYKNLKK [SSL2 C-terminal 12 aa]	0.693 ± 0.05	0.757 ± 0.028
LIYLNETLGTRL [IRC19 C-terminal 12 aa]	0.705 ± 0.015	0.671 ± 0.003
